Source: the supplement of paper PMC10567573

B1: CDC25A (parent)
chain: KPIVPTDGKRVIVVFHCEFSSERG

Variants of: B1
Test: protein stability index of a GFP-peptide fusion (GPS, HEK-293T) (PSI 1-6); higher = more stable
Settings: c terminus: a fixed tail appended
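Also: lentivirally expressed fusions sorted by FACS into six bins by GFP to DsRed ratio, PSI derived from sequencing read proportions per bin multiplied by bin number.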

Protein stability index: each site, then its substitutions
C17: Y 2.9; H 1.38; V 2.73; G 1.98; W 2.91; N 2.52; T 1.86
S21: P 4.03; N 2.46; A 2.27; T 3.26; M 2.22; R 1.2; H 2.27; D 1.28; C 3.38; V 2.61; F 1.97; E 1.56; I 1.42; K 1.9; L 3.4
V14: S 2.52; L 2.17; K 2.43; P 3.44; T 1.72; E 2.67; C 2.57; D 3.36; A 1.92; G 2.69; Q 2.24; W 2.09; R 2.09; N 2.35; F 1.83; H 2.54; Y 2.6; M 1.9; I 2.56
V13: T 2.38; F 2.33; C 1.79; W 1.79; E 3.43; H 2.08; R 2.91; P 3.21; S 3.36; A 2.28; Y 2.31; G 2.8; Q 3.24; K 3.02; N 3.57; L 2.97; D 3.69; I 3.19; M 1.16
I3: W 4.26
R10: C 3.54; L 3.23; S 2.33; N 2.39; A 1.93; G 2.54; E 2.96; V 2.76; D 1.77; W 4.02; T 2.54; Q 2.14; K 2.51; F 2.43; P 3.09; I 1.45; Y 2.95; M 2.6
F15: T 2.92; G 2.98; A 2.47; N 3.98
